Experiments:
[1] = molecular target: T1, HA-tagged IRS-1 PH domain mutant PH^W106A (rat, UniProt P35570 3-133); test: GST pull-down from COS-1 lysates (500 µg), anti-HA western blot
T1 construct: range 3-133; Expressed transiently in COS-1 cells; The residue limits are not restated for this mutant; not shown: HA tag
T1 sequence (looked up): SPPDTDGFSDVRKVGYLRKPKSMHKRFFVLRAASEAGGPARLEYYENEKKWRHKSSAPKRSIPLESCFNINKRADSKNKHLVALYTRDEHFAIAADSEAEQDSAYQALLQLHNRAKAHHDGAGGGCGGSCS

[2] = molecular target: T2, HA-tagged PH domain of mSos1 (residues 448-577) (mouse, UniProt Q62245 448-577); test: GST pull-down from yeast lysates, anti-HA western blot
T2 construct: range 448-577; Expressed in L40 yeast; The species is read from the printed prefix in 'mSos1'; also called SOS1 PH domain; not shown: HA tag
T2 sequence (looked up): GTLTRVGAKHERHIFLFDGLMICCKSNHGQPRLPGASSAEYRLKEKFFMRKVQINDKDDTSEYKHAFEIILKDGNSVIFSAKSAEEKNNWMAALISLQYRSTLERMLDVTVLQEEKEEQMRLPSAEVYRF

[3] = molecular target: T3, HA-tagged PH domain of human RasGAP (residues 464-603) (human, UniProt P20936 464-603); test: as above
T3 construct: range 464-603; Expressed in L40 yeast; also called Ras-GAP (GAP) PH domain; not shown: HA tag
T3 sequence (looked up): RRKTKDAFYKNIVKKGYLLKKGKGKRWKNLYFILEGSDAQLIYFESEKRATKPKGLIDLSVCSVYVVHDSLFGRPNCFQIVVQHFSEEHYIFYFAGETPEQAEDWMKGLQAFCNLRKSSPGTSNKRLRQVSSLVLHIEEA

[4] = molecular target: T4, HA-tagged PH domain of mouse Ect-2 (residues 495-621) (mouse, UniProt Q07139 670-796); test: as above
T4 construct: range 670-796; Expressed in L40 yeast; also called ECT-2 PH domain; not shown: HA tag
T4 sequence (looked up): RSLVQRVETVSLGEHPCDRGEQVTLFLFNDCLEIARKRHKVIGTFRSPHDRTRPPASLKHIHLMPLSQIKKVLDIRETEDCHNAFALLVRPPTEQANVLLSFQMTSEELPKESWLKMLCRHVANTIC

binding result [1]: no binding
binding result [2]: no binding
binding result [3]: no binding
binding result [4]: no binding
B1: GST-PHIP fusion protein containing PHIP residues 8-209 (PBR) isolated from the yeast clone VP1.32 (other)
chain: VGELTENGLTLEEWLPSAWITDTLPRRCPFVPQMGDEVYYFRQGHEAYVEMARKNKIYSINPKKQPWHKMELREQELMKIVGIKYEVGLPTLCCLKLAFLDPDTGKLTGGSFTMKYHDMPDVIDFLVLRQQFDDAKYRRWNIGDRFRSVIDDAWWFGTIESQEPLQPEYPDSLFQCYNVCWDNGDTEKMSPWDMELIPNNAV
notes: Bacterially expressed and immobilized for pull-downs; also called GST-PHIP (PBR); not shown: glutathione S-transferase encoded by the pGEX-3X vector

Reference: US20040086863A1 (published 2004)
